Measurements: article PMC9482650, “Quantitative fragmentomics allow affinity mapping of interactomes” (Nature Communications, 2022)

Tests used:
Assay in all cases: holdup assay
Set-up in all cases: key: below the threshold = too weak to quantify, mostly under pKd 3.1 to 4
[1] = biological target: AHNAK1, Q09666
[2] = biological target: DLG1_3, Q12959
[3] = biological target: T1, FRMPD1, Q5SYB0
T1 sequence (Q5SYB0 52-145, limits assumed, looked up): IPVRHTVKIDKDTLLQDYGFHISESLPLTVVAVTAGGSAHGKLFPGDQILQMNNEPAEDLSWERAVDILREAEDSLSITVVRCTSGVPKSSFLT

[4] = biological target: FRMPD2_1, Q68DX3
[5] = biological target: GRID2IP_1, A4D2P6
[6] = biological target: T2, GRIP1_2, Q9Y3R0
T2 sequence (Q9Y3R0 145-248, limits assumed, looked up): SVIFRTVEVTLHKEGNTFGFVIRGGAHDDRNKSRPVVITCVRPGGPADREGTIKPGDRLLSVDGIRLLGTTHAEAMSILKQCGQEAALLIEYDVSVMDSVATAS

[7] = biological target: GRIP2_7, Q9C0E4
[8] = biological target: T3, HTRA4, P83105
T3 sequence (P83105 378-476, limits assumed, looked up): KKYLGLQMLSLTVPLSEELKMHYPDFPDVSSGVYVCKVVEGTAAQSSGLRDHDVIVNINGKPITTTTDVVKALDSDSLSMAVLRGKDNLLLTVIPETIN

[9] = biological target: IL16_1, Q14005
[10] = biological target: IL16_4, Q14005
[11] = biological target: Inadl_1, Q8NI35
[12] = biological target: Inadl_2, Q8NI35
[13] = biological target: Inadl_3, Q8NI35
[14] = biological target: MAGI1_1, Q96QZ7
[15] = biological target: MAGI2_3, Q86UL8
[16] = biological target: MAGI2_4, Q86UL8
[17] = biological target: MAGI2_5, Q86UL8
[18] = biological target: T4, MPDZ_12, O75970
T4 sequence (O75970 1857-1958, limits assumed, looked up): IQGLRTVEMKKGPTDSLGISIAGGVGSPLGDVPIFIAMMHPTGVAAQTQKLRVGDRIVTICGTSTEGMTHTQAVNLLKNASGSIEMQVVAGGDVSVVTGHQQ

[19] = biological target: T5, MPDZ_5, O75970
T5 sequence (O75970 695-796, limits assumed, looked up): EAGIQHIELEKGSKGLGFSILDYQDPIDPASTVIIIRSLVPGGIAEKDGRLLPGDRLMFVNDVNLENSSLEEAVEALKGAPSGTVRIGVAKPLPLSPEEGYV

[20] = biological target: T6, MPP7, Q5T2T1
T6 sequence (Q5T2T1 134-230, limits assumed, looked up): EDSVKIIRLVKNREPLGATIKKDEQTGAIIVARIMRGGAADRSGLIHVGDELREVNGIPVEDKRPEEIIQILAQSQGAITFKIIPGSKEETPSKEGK

[21] = biological target: NHERF2_2, Q15599
[22] = biological target: T7, NHERF3_3, Q5T2W1
T7 sequence (Q5T2W1 238-333, limits assumed, looked up): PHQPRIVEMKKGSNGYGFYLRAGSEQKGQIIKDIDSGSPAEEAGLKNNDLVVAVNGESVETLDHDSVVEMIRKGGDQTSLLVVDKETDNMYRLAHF

[23] = biological target: NHERF4_2, Q86UT5
[24] = biological target: PDZRN4_1, Q6ZMN7
[25] = biological target: T8, SNTB1, Q13884
T8 sequence (Q13884 107-205, limits assumed, looked up): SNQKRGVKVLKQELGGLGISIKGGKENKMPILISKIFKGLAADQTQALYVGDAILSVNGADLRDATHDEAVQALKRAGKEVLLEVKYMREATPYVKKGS

[26] = biological target: T9, TIAM2, Q8IVF5
T9 sequence (Q8IVF5 885-986, limits assumed, looked up): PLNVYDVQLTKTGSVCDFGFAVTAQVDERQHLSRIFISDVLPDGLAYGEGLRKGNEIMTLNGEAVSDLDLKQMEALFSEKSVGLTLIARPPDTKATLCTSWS

[27] = biological target: TJP2_1, Q9UDY2
[28] = biological target: T10, TJP3_3, O95049
T10 sequence (O95049 375-456, limits assumed, looked up): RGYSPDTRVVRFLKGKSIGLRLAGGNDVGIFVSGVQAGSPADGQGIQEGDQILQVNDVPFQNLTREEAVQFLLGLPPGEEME

[29] = plain residues with an end cap or a label only (N-terminal biotin on a linker: ttds)
[30] = plain residues with an end cap or a label only (N-terminal biotin on a linker: ahx)

Chain of FRMPD2_1, Q68DX3 (Q68DX3 770-861): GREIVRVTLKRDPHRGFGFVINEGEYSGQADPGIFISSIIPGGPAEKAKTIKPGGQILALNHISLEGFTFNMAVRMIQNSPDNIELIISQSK
Chain of NHERF2_2, Q15599 (Q15599 142-238): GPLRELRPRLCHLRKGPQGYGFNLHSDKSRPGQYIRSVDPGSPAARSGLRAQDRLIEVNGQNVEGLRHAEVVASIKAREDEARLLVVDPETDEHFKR
Chain of Inadl_2, Q8NI35 (Q8NI35 238-335): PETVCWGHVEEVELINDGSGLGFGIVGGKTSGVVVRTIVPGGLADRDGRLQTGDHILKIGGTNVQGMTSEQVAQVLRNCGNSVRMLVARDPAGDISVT
Chain of MAGI2_3, Q86UL8 (Q86UL8 600-682): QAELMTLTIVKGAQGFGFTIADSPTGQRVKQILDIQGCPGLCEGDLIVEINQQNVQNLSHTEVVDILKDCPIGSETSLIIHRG
Chain of Inadl_3, Q8NI35 (Q8NI35 359-469): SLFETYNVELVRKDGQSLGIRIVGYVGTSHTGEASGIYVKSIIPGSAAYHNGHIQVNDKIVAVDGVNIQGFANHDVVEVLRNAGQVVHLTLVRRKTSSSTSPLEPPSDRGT
Chain of GRID2IP_1, A4D2P6 (A4D2P6 1-87): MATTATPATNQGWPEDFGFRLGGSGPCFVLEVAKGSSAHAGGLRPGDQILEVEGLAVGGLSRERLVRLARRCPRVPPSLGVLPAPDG
Chain of PDZRN4_1, Q6ZMN7 (Q6ZMN7 213-318): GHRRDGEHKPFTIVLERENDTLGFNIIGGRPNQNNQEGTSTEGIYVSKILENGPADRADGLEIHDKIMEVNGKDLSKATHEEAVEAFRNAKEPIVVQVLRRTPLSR
Chain of MAGI2_4, Q86UL8 (Q86UL8 772-865): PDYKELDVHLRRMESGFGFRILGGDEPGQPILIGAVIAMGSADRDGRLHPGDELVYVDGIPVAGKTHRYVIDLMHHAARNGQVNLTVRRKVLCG
Chain of IL16_1, Q14005 (Q14005 210-306): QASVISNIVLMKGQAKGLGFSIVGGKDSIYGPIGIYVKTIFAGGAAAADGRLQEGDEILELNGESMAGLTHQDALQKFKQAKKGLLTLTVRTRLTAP
Chain of TJP2_1, Q9UDY2 (Q9UDY2 24-128): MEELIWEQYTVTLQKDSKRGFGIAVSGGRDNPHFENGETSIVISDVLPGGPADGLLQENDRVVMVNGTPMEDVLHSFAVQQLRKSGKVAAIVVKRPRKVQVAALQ
Chain of NHERF4_2, Q86UT5 (Q86UT5 220-308): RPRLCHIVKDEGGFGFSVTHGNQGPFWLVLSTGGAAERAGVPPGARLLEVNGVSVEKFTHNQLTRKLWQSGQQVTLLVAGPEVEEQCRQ
Chain of MAGI2_5, Q86UL8 (Q86UL8 915-1017): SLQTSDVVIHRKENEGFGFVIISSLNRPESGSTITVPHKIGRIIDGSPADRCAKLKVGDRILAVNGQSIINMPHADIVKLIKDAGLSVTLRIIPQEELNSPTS
Chain of Inadl_1, Q8NI35 (Q8NI35 113-229): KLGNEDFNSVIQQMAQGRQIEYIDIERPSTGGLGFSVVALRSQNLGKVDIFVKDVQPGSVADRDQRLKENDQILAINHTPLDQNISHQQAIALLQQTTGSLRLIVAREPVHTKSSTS
Chain of IL16_4, Q14005 (Q14005 1229-1329): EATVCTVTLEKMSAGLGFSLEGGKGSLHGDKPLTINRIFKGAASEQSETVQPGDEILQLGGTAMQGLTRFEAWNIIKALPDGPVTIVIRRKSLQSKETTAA
Chain of AHNAK1, Q09666 (Q09666 4-100): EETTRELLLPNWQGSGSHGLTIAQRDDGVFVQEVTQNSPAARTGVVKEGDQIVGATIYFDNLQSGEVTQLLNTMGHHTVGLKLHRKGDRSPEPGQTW
Chain of MAGI1_1, Q96QZ7 (Q96QZ7 1-106): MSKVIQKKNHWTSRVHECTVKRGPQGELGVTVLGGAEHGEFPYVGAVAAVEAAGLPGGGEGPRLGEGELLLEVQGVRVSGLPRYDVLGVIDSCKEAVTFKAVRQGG
Chain of DLG1_3, Q12959 (Q12959 457-571): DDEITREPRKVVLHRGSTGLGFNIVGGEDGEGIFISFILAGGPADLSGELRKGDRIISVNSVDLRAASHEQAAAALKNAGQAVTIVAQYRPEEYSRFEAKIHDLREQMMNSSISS
Chain of GRIP2_7, Q9C0E4 (Q9C0E4 934-1023): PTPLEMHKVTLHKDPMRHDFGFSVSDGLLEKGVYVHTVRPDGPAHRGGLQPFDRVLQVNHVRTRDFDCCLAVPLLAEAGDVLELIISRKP

B1: ARHGAP6, O43182 (peptide)
chain: NPDALPETLV
- pKd [1, 29]: below the threshold
- pKd [2, 29]: 3.5
- pKd [3, 29]: below the threshold
- pKd [4, 29]: below the threshold
- pKd [5, 29]: below the threshold
- pKd [6, 29]: below the threshold
- pKd [7, 29]: below the threshold
- pKd [8, 29]: below the threshold
- pKd [9, 29]: 3.87
- pKd [10, 29]: below the threshold
- pKd [11, 29]: below the threshold
- pKd [12, 29]: 3.93
- pKd [13, 29]: 4.36
- pKd [14, 29]: below the threshold
- pKd [15, 29]: 3.89
- pKd [16, 29]: 4.42
- pKd [17, 29]: 4.45
- pKd [18, 29]: below the threshold
- pKd [19, 29]: below the threshold
- pKd [20, 29]: below the threshold
- pKd [21, 29]: below the threshold
- pKd [22, 29]: below the threshold
- pKd [23, 29]: below the threshold
- pKd [24, 29]: 4.11
- pKd [25, 29]: 4.86
- pKd [26, 29]: below the threshold
- pKd [27, 29]: below the threshold
- pKd [28, 29]: below the threshold

B2: KCNJ12, Q14500 (peptide)
chain: QRPYRRESEI
- pKd [1, 29]: below the threshold
- pKd [2, 29]: 4.08
- pKd [3, 29]: below the threshold
- pKd [4, 29]: below the threshold
- pKd [5, 29]: below the threshold
- pKd [6, 29]: below the threshold
- pKd [7, 29]: below the threshold
- pKd [8, 29]: below the threshold
- pKd [9, 29]: below the threshold
- pKd [10, 29]: below the threshold
- pKd [11, 29]: below the threshold
- pKd [12, 29]: below the threshold
- pKd [13, 29]: below the threshold
- pKd [14, 29]: below the threshold
- pKd [15, 29]: below the threshold
- pKd [16, 29]: below the threshold
- pKd [17, 29]: below the threshold
- pKd [18, 29]: below the threshold
- pKd [19, 29]: below the threshold
- pKd [20, 29]: below the threshold
- pKd [21, 29]: below the threshold
- pKd [22, 29]: below the threshold
- pKd [23, 29]: below the threshold
- pKd [24, 29]: 4.18
- pKd [25, 29]: 3.86
- pKd [26, 29]: below the threshold
- pKd [27, 29]: below the threshold
- pKd [28, 29]: below the threshold

B3: ARVCF, O00192 (peptide)
chain: AKPQPVDSWV
- pKd [1, 30]: below the threshold
- pKd [2, 30]: below the threshold
- pKd [3, 30]: below the threshold
- pKd [4, 30]: below the threshold
- pKd [5, 30]: below the threshold
- pKd [6, 30]: below the threshold
- pKd [7, 30]: 4.13
- pKd [8, 30]: below the threshold
- pKd [9, 30]: 4.1
- pKd [10, 30]: below the threshold
- pKd [11, 30]: below the threshold
- pKd [12, 30]: below the threshold
- pKd [13, 30]: 3.86
- pKd [14, 30]: below the threshold
- pKd [15, 30]: below the threshold
- pKd [16, 30]: 4.12
- pKd [17, 30]: below the threshold
- pKd [18, 30]: 4.4
- pKd [19, 30]: below the threshold
- pKd [20, 30]: below the threshold
- pKd [21, 30]: below the threshold
- pKd [22, 30]: below the threshold
- pKd [23, 30]: below the threshold
- pKd [24, 30]: 3.63
- pKd [25, 30]: 3.5
- pKd [26, 30]: below the threshold
- pKd [27, 30]: 4.77
- pKd [28, 30]: 4.73
